In US20250084176A1:

Biological target: mouse CD137, full length, on cells (mouse) (UniProt P20334)
Experiment: cell-based or functional assay

Sequence of mouse CD137, full length, on cells (mouse) (P20334 24-256): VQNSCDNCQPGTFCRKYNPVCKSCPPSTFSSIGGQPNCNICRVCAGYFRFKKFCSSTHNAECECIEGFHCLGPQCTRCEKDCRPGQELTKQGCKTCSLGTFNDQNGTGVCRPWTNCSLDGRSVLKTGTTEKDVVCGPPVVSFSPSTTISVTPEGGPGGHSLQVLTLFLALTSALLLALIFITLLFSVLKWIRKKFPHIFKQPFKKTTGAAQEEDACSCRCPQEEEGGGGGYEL

IL-2 release, mouse CD137 DO11.10 T cell activation assay, Protein L: +XL EC50: 2.26 nM | IL-2 release, mouse CD137 DO11.10 T cell activation assay, Protein L: +XL Emax: 21300 pg/mL
Substance: G1-AA/Lob12.3 (antibody)
